# Source: patent publication US20150238626A1, “RECEPTOR LIGAND LINKED CYTOTOXIC MOLECULES” (ONTOCHEM GMBH, priority 2012, published 2015)
# Tests used:
# [1] = biological target: human Y2 receptor C-terminally fused to EYFP (human) (UniProt P49146)
# [2] = biological target: human Y1 receptor C-terminally fused to EYFP (human) (UniProt P25929)
# [3] = biological target: human Y2 receptor C-terminally fused to EYFP (human) (UniProt P49146); remark: listed apart in the source
substance,measurement,setting,value
NPY (ligand),"EC50, functional IP3 second messenger assay",[1],0.5 nM
same,"EC50, functional CRE reporter gene assay",[2],0.77 nM
same,"EC50, functional CRE reporter gene assay",[3],0.87 nM
